Measured values reported in patent US20260055182A1 (CIS BIOPHARMA, published 2026).
Numbering of substitutions follows the chain as printed. In names and notes the source's numbering stands. Each block holds one binder with its values, some of them ahead of it.

What was measured:
[1] = molecular target: T1, L1-CAM recombinant protein (His Tag), human (human, UniProt P32004 20-1120); assay: ELISA, human L1-CAM coated at 2 µg/ml
T1 construct: Bought protein; also called CD171; human L1-CAM; not shown: His tag
T1 sequence (P32004 20-1120 limits assumed): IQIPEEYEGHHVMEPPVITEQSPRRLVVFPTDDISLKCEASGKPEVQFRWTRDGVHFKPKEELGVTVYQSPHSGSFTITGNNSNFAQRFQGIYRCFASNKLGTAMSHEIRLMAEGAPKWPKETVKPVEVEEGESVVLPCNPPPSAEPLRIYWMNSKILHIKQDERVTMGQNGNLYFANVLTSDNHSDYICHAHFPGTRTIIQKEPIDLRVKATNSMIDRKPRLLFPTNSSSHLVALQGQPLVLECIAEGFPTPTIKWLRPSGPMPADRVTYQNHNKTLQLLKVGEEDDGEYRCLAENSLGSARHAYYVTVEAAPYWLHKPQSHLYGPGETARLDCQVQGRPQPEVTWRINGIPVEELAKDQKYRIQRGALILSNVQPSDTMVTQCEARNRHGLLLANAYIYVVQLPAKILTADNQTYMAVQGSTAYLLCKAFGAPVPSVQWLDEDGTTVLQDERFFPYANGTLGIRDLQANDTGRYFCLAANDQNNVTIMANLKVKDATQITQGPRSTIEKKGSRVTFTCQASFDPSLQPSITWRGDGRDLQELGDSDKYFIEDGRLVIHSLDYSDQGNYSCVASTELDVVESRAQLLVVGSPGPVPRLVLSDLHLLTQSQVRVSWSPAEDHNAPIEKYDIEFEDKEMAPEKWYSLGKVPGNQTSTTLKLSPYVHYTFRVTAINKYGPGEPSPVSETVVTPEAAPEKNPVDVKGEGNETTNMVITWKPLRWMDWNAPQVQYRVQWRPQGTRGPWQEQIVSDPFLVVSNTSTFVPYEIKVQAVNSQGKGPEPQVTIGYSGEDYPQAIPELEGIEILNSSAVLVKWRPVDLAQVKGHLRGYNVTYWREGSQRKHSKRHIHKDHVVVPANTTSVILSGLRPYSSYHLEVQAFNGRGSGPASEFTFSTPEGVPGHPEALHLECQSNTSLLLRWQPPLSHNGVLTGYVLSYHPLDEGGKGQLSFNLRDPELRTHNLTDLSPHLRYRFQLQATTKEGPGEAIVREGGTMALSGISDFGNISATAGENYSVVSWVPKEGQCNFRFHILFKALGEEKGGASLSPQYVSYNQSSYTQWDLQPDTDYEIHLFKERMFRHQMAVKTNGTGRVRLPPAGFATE

[2] = molecular target: T1, L1-CAM recombinant protein (His Tag), …; assay: SPR (Biacore 8K); L1-CAM immobilised on CM5 chip, antibody as analyte
Method: (§1) In the SPR experiment, antigen is immobilized on sensor chip and solutions containing antibody at various concentrations are flown over the antigen. real time measurement of kinetics parameters is performed, including their on/off rates (ka and kd). Based thereon, binding affinity constant KD is determined.

[3] = molecular target: T1, L1-CAM recombinant protein (His Tag), …; assay: SPR (Biacore 8K) as in Example 6, new batch of L1-CAM on the chip
Method: as §1

[4] = molecular target: T1, L1-CAM recombinant protein (His Tag), …; assay: GCI (Creoptix WAVEdelta); antibody captured on protein A/G, L1-CAM as analyte, 1:1 model
[5] = molecular target: T1, L1-CAM recombinant protein (His Tag), …; assay: ELISA, human L1-CAM coated at 2 µg/ml; second of two values in the cell; second of two values in the cell
[6] = molecular target: T1, L1-CAM recombinant protein (His Tag), …; assay: SPR (Biacore 8K); L1-CAM immobilised on CM5 chip, antibody as analyte; remark: listed apart in the source
Method: as §1

[7] = molecular target: T1, L1-CAM recombinant protein (His Tag), …; assay: ELISA, human L1-CAM coated at 2 µg/ml; first of two values in the cell; first of two values in the cell
[8] = molecular target: T2, human FcyRI/CD64 (human, UniProt P12314 16-288, limits assumed); assay: SPR (Biacore 8K+), receptor reversibly immobilised, antibody as analyte
T2 construct: Bought protein, reversibly immobilised for SPR; also called human CD64
T2 sequence (P12314 16-288 limits assumed): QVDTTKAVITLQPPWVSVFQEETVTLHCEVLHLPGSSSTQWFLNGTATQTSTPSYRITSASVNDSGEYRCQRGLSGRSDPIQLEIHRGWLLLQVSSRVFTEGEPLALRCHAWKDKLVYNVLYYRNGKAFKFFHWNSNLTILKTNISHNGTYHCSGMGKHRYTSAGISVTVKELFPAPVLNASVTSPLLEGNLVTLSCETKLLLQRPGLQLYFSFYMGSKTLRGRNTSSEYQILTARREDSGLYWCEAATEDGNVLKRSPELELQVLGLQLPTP
Method: (§2) Effect on interaction with Fc receptor was analyzed by SPR [Instrument: Biacore T200 (C1q and FcRn) and 8K+ for (FcγR)]. Analysis temperature: 25° C., sample compartment: 12° C., Sensor chips: CM3 (C1q) and C1 (FcγR and FcRn).
(§3) Concentration range was adjusted to optimal window depending on results of qualitative analysis. The study was conducted by Biaffin GmbH & Co KG (Bielefeld, Germany).

[9] = molecular target: T3, human FcyRIIIA/CD16a (V176) (human, UniProt P08637 17-208); assay: SPR (Biacore 8K+), receptor reversibly immobilised, antibody as analyte; table token '-' at the 120th table, row 12, column 3
T3 construct: Bought protein, reversibly immobilised for SPR; also called human CD16a (V176)
T3 sequence (P08637 17-208 F176V limits assumed): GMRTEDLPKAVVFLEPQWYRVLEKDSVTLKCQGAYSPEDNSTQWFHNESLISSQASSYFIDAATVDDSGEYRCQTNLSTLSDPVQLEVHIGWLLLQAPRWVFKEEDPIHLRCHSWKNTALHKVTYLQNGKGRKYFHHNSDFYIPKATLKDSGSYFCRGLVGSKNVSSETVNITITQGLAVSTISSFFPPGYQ
Method: as §2

[10] = molecular target: T4, EGFR on HEK293 cells (human, UniProt P00533 25-1210); assay: cell microarray confirmation screen, negative control vector; cells of LV40 under EGFR are blank
T4 construct: whole, on cells; also called hEGFR
Method: (§4) Vectors encoding all interactions identified in the library screen, plus control vectors encoding CD20 (positive control) and EGFR (transfection and negative control), were arrayed and expressed in HEK293 cells on new slides. Confirmation screen slides and analyses were carried out as for the library screen either after cell fixation (n=2) or in the absence of fixation (n=1). […] Binding to target-expressing cells and non-transfected cells was again assessed by fluorescence imaging.

[11] = molecular target: T5, human FcRn / FCGRT&B2M (human, UniProt P55899 24-297; P61769 21-119); assay: SPR (Biacore T200), pH 6.0, FcRn reversibly immobilised, antibody as analyte
T5 construct: Bought protein, reversibly immobilised for SPR at pH 6.0; also called neonatal receptor
Method: as §2, §3

[12] = molecular target: T6, CD20 on HEK293 cells (human, UniProt P11836 1-297); assay: cell microarray confirmation screen, control vector; cells of LV40 under CD20 are blank
T6 construct: whole, on cells; Positive control target for the Rituximab biosimilar; also called clone 0038
T6 sequence (looked up): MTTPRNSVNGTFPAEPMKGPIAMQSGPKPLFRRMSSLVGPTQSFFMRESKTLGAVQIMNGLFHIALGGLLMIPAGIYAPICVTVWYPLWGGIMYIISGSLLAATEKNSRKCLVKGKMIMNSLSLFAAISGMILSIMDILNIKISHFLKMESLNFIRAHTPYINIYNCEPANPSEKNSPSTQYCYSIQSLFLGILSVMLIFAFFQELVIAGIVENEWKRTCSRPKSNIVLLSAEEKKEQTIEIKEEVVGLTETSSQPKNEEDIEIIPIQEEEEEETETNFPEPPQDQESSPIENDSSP
Method: as §4

[13] = molecular target: T2, human FcyRI/CD64; assay: SPR; KD of LV40 over KD of Rituximab (control)
Method: as §2, §3

[14] = molecular target: T5, human FcRn / FCGRT&B2M; assay: SPR; KD of LV40 over KD of Rituximab (control)
Method: as §2, §3

[15] = molecular target: human C1q purified protein (human, UniProt P02745 23-245; P02746 28-253; P02747 29-245); assay: SPR (Biacore T200), C1q reversibly immobilised, antibody as analyte; table token '-' at the 120th table, row 16, column 3
human C1q purified protein, sequence (P02745 23-245, chain 1 of 3): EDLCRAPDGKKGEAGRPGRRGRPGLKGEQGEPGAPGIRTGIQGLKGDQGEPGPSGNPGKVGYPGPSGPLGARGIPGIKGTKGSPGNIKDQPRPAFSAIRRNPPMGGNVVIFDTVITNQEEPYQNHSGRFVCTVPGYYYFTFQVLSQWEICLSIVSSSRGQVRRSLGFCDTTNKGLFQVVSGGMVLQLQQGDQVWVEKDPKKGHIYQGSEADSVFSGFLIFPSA
human C1q purified protein, sequence (P02746 28-253, chain 2 of 3): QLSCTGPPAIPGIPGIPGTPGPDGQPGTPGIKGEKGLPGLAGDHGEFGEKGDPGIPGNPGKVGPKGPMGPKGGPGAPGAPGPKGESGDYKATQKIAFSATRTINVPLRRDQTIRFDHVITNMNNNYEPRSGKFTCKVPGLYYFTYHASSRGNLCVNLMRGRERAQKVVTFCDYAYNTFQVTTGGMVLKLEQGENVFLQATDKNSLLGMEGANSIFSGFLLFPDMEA
human C1q purified protein, sequence (P02747 29-245, chain 3 of 3): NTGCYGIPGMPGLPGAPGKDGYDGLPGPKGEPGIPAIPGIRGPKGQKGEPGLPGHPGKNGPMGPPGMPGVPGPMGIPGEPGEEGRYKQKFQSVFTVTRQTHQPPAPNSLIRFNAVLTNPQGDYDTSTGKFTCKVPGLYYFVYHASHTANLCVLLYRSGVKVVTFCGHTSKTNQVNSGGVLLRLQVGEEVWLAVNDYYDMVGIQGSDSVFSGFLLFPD
Method: as §2

[16] = molecular target: T7, human FcyRIIA/CD32a (H167) (human, UniProt P12318 36-218); assay: SPR (Biacore 8K+), receptor reversibly immobilised, antibody as analyte; table token '-' at the 120th table, row 10, column 3
T7 construct: Bought protein, reversibly immobilised for SPR; also called human CD32a (H167)
T7 sequence (looked up): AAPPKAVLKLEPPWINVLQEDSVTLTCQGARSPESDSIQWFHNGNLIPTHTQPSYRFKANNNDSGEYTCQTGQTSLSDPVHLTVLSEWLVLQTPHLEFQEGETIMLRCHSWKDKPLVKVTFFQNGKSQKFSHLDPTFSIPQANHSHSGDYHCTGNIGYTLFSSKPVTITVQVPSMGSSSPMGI
Method: as §2

[17] = molecular target: T1, L1-CAM recombinant protein (His Tag), …; assay: ELISA, human L1-CAM coated at 2 µg/ml; second of two values in the cell
[18] = molecular target: T1, L1-CAM recombinant protein (His Tag), …; assay: ELISA, human L1-CAM coated at 2 µg/ml; first of two values in the cell

EC50 [1]: 0.0258 µg/mL
Kd [2]: < 0.00971 nM
koff [2]: < 1e-05 s⁻¹
kon [2]: 1.03e+06 M⁻¹ s⁻¹
Kd [3]: 0.0238 nM
koff [3]: 3.53e-05 s⁻¹
kon [3]: 1.48e+06 M⁻¹ s⁻¹
Kd [4]: ~4 nM
B1: CE7-variant7-AG (antibody, human IgG1, kappa, L234A L235A, N297A)
heavy: QVQLVQSGAEVKKPGASVKVSCKASGYTFTGYWMHWVRQAPGQGLEWIGEINPSNGRTNYNERFQGRVTLTVDKSISTAYMELSRLRSDDTAVYYCARDYYGTSYNFDYWGQGTLVTVSSASTKGPSVFPLAPSSKSTSGGTAALGCLVKDYFPEPVTVSWNSGALTSGVHTFPAVLQSSGLYSLSSVVTVPSSSLGTQTYICNVNHKPSNTKVDKKVEPKSCDKTHTCPPCPAPEAAGGPSVFLFPPKPKDTLMISRTPEVTCVVVDVSHEDPEVKFNWYVDGVEVHNAKTKPREEQYASTYRVVSVLTVLHQDWLNGKEYKCKVSNKALPASIEKTISKAKGQPREPQVYTLPPSREEMTKNQVSLTCLVKGFYPSDIAVEWESNGQPENNYKTTPPVLDSDGSFFLYSKLTVDKSRWQQGNVFSCSVMHEALHNHYTQKSLSLSPGK
light: DIQMTQSPSSLSASVGDRVTITCKANEDINNRLAWYQQKPGKAPKLLISGATNLVTGVPSRFSGSGSGKDYTLTISSLQPEDFATYYCQQYWSTPFTFGQGTKLEIKRTVAAPSVFIFPPSDEQLKSGTASVVCLLNNFYPREAKVQWKVDNALQSGNSQESVTEQDSKDSTYSLSSTLTLSKADYEKHKVYACEVTHQGLSSPVTKSFNRGEC
notes: CE7-1-2-VHB (L234A L235A P331S N297A) + CE7-1-NL1-VLA, aglycosylated human IgG1 kappa; also called CE7-varant7-AG; huCE7 variant 7AG

EC50 [5]: 0.0327 µg/mL
Kd [6]: 0.000896 nM
koff [6]: 5.51e-07 s⁻¹
kon [6]: 615000 M⁻¹ s⁻¹
EC50 [7]: 0.00958 µg/mL
B2: CE7-variant7 (antibody)
heavy: B1 heavy with A300N
light: B1 light
notes: also called CE7-12-VHB-1NL1-VLA; humanized variant 7

Kd [8]: 15.8 nM
binding result [9]: no binding
binding result [10]: no binding (tested: 20 µg/mL)
Kd [11]: 459 nM
binding result [12]: no binding (tested: 20 µg/mL)
ratio KD (KD sample / KD control) [13]: 389
ratio KD (KD sample / KD control) [14]: 1.2
binding result [15]: no binding
binding result [16]: no binding
Kd [3]: 0.0644 nM
koff [3]: 0.000472 s⁻¹
kon [3]: 7.32e+06 M⁻¹ s⁻¹
B3: huCE7 LV40 (antibody, human IgG1, kappa, L234A L235A, N297A)
heavy: B1 heavy with W33F, G56A, T310P
light: B1 light with N31A, W92Y
notes: Variant 7AG (IgG1, N297A L234A L235A P331S) with HC WH33F, GH55A, TH307P and LC NL31A, WL92Y; also called huCE7 variant LV40; huCE7-variant40

EC50 [17]: 0.0232 µg/mL
Kd [2]: 0.0519 nM
koff [2]: 4.39e-05 s⁻¹
kon [2]: 845000 M⁻¹ s⁻¹
EC50 [18]: 0.00663 µg/mL
B4: chimeric cHCE7 (antibody, V domains shown)
VH: QVQLQQPGAELVKPGASVKLSCKASGYTFTGYWMHWVKQRPGHGLEWIGEINPSNGRTNYNERFKSKATLTVDKSSTTAFMQLSGLTSEDSAVYFCARDYYGTSYNFDYWGQGTTLTVSS
VL: DIQMTQSSSSFSVSLGDRVTITCKANEDINNRLAWYQQTPGNSPRLLISGATNLVTGVPSRFSGSGSGKDYTLTITSLQAEDFATYYCQQYWSTPFTFGSGTELEIK
notes: Control antibody; also called chimeric HCE7; CE7 chimeric antibody
